How the values were obtained:
CD3 on activated T cells = biological target: T1, CD3 on activated T cells (human, UniProt P07766 23-207); assay: flow cytometry on activated T cells, 4 C, secondary antibody, MFI
T1 construct: whole, on cells; CD3 complex on cells; the rest of the complex is not described; also called CD3 receptor
Protocol: FIG. 13 depicts binding properties of an exemplary CD33-CD3 IgG-scFv (BsAb) to CD33 and CD3. (A) MOLM13 cells were reacted for 30 min at 4 C.° using decreasing doses of hM195 (anti-CD33 IgG), the heterodimeric BsAb, and an exemplary CD33-CD3 IgG-scFv. Cells were washed and immunostained with a fluorochrome-conjugated secondary antibody and mean fluorescence intensity (MFI) assayed by flow cytometry. (B) MOLM13 cells were reacted for 30 min, 4 h or 24 h at 37 C.° or 4 C.° with 1 μg/ml of hM195 (anti-CD33 IgG), the heterodimeric IgG BsAb, and exemplary CD33-CD3 IgG-scFv. Cells were washed and immunostained with a fluorochrome-conjugated secondary antibody at 4 C.°. After washing the unbound antibody, MFI was analyzed by flow cytometry. (C) Activated T cells were reacted for 30 min at 4 C.° with decreasing doses of hOKT3 (anti-CD3 IgG), the heterodimeric BsAb, and exemplary CD33-CD3 IgG-scFv. Cells were washed and immunostained with a fluorochrome-conjugated secondary antibody and MFI analyzed measured by flow cytometry.

[1] = biological target: CD33 on human CD33(+) cells (human, UniProt P20138 18-364); assay: cell-based or functional assay
Sequence of CD33 on human CD33(+) cells (P20138 18-364): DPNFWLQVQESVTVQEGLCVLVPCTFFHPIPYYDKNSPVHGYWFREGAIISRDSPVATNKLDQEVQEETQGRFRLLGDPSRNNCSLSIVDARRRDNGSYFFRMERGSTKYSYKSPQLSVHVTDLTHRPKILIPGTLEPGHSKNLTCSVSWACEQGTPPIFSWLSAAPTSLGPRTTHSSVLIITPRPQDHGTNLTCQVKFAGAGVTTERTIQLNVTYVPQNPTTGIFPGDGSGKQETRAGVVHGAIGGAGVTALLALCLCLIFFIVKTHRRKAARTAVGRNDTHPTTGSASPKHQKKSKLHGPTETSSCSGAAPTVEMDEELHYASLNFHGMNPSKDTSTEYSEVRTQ

T1 sequence (P07766 23-207): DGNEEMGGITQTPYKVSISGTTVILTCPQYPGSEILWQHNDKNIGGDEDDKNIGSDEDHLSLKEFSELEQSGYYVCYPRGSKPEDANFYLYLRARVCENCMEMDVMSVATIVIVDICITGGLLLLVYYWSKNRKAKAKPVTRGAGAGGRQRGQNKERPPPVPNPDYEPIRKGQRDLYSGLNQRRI

fold weaker binding (against heterodimer) (CD3 on activated T cells): 2.5 fold
fold weaker binding (against huOKT3) (CD3 on activated T cells): 27 fold
TDCC potency, fold against the heterodimer, 4 h chromium release assay, THP1 and MOLM13 cells [1]: 12 fold
B1: CD33-BsAb (BiClone 133), exemplary CD33-CD3 IgG-scFv bispecific antibody agent (bispecific antibody)
heavy: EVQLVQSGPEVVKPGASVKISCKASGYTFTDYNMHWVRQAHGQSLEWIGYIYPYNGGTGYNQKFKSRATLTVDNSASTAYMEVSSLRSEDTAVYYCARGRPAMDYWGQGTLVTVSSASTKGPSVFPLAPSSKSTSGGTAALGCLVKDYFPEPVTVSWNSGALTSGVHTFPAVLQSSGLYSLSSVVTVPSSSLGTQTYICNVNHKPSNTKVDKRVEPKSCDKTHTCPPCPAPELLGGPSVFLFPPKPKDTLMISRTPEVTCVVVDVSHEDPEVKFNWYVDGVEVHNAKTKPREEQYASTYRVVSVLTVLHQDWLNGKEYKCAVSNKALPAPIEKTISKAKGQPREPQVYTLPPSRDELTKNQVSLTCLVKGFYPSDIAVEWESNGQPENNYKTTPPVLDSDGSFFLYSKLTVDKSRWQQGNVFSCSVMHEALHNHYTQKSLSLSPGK
light: EIVLTQSPATLSVSLGERATISCRASESVDNYGISFMNWFQQKPGQPPRLLIYAASNQGSGVPARFSGSGPGTDFTLTISSMEPEDFAMYFCQQSKEVPWTFGGGTKLEIKRTVAAPSVFIFPPSDEQLKSGTASVVCLLNNFYPREAKVQWKVDNALQSGNSQESVTEQDSKDSTYSLSSTLTLSKADYEKHKVYACEVTHQGLSSPVTKSFNRGECTSGGGGSGGGGSGGGGSQVQLVQSGGGVVQPGRSLRLSCKASGYTFTRYTMHWVRQAPGKCLEWIGYINPSRGYTNYNQKFKDRFTISRDNSKNTAFLQMDSLRPEDTGVYFCARYYDDHYSLDYWGQGTPVTVSSGGGGSGGGGSGGGGSGGGGSGGGGSGGGGSDIQMTQSPSSLSASVGDRVTITCSASSSVSYMNWYQQTPGKAPKRWIYDTSKLASGVPSRFSGSGSGTDYTFTISSLQPEDIATYYCQQWSSNPFTFGCGTKLQITR
notes: IgG-scFv format, tetravalent (2+2): two arms to CD33 and two to CD3; also called CD33-specific BsAb; anti-CD33 BsAb
EC50 of T cell cytotoxicity (lysis of MOLM13 cells) [1]: 2.4 pM
EC50 of T cell cytotoxicity, 4-hour 51Cr release assay, HL60 AML cells [1]: 1.1 pM
